Non-standard residues stand in square brackets, D forms with d. No end group written: not given here. *: point of attachment. CH2Cl = ClC*
Experiments:
Test in all cases: cell-based or functional assay
[1] = biological target: Tissue Plasminogen Activator (t-PA)
[2] = biological target: human urokinase (from Sigma) (human, UniProt P00749 21-431, limits assumed)
[3] = biological target: bovine factor Xa (from Sigma) (bovine, UniProt P00743 41-492, limits assumed)
[4] = biological target: Plasmin
[5] = biological target: human Factor VIIa (FVIIa) and human tissue factor (TF) complex (human, UniProt P08709 61-466; P13726 33-251, limits assumed)
[6] = biological target: bovine trypsin (from Sigma) (bovine, UniProt P00760 24-246)
Sequence of bovine trypsin (from Sigma) (P00760 24-246): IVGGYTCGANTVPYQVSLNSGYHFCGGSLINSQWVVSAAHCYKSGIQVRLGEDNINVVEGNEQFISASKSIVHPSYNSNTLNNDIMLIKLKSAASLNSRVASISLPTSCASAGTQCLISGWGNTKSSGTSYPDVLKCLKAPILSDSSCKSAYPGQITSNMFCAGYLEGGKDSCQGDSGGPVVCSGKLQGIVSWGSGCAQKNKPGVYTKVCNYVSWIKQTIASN

Sequence of bovine factor Xa (from Sigma) (P00743 41-492 limits assumed): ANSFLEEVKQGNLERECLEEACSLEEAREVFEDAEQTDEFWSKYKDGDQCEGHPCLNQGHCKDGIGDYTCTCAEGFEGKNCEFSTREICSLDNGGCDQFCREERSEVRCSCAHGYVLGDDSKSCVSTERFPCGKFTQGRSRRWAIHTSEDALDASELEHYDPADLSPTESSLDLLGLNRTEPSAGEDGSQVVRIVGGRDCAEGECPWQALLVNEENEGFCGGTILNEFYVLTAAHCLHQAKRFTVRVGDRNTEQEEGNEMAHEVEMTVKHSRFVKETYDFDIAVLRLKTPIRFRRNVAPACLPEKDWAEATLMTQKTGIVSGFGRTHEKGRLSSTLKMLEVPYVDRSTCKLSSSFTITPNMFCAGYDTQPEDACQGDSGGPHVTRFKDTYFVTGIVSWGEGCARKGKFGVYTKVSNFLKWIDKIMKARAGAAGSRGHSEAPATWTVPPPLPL

B1: (D)FPR-CH2Cl (peptide)
peptide: [dF]-Pro-Arg-CH2Cl
[1]
  IC50 (nM), inhibition of chromogenic substrate hydrolysis by the enzyme: 106 nM
[2]
  IC50 (nM), inhibition of chromogenic substrate hydrolysis by the enzyme: 508 nM
[3]
  IC50 (nM), inhibition of chromogenic substrate hydrolysis by the enzyme: 165 nM
[4]
  IC50 (nM), inhibition of chromogenic substrate hydrolysis by the enzyme: 699 nM
[5]
  IC50 (nM), inhibition of chromogenic substrate hydrolysis by the enzyme: 200 nM
[6]
  IC50 (nM), inhibition of chromogenic substrate hydrolysis by the enzyme: 212 nM

From patent US6699869 (MYRIAD GENETICS, dated 2004)
